From paper PMC8980893, “A fusion of the Bacteroides fragilis ferrous iron import proteins reveals a role for FeoA in stabilizing GTP-bound FeoB” (The Journal of Biological Chemistry, 2022) come the findings set out here.

One test deals with T1, BfNFeoAB (Bacteroides fragilis, UniProt Q5LFM5).
T1 construct: gene BF9343_1287; N-terminal soluble domain of natural FeoAB fusion (FeoA, linker, G-protein and GDI domains), residues 1-438, without transmembrane region; from E. coli C43(DE3) deltaacrB; monomer, about 53 kDa; PDB 7R7B covers FeoA residues 1-74 only
T1 sequence (Q5LFM5 1-438): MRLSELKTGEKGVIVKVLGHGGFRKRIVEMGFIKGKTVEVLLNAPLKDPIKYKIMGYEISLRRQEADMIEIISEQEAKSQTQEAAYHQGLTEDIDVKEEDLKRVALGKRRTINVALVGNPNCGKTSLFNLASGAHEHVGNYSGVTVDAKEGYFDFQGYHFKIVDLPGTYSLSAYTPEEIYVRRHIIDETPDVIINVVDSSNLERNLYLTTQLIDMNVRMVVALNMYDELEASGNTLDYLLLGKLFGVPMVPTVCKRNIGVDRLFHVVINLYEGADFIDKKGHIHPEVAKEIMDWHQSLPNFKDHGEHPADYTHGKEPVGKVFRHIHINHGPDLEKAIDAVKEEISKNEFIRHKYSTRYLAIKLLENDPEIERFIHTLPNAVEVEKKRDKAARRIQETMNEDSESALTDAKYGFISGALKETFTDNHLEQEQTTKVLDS
Kind of test: hydrogen-deuterium exchange mass spectrometry. The settings on record: 25 mM Tris pD 7.5, 300 mM NaCl, 2% glycerol, 1 mM TCEP, 25 °C. Format: binding.

The target in test [1] is NFeoB region (G-protein domain and GDI domain) of Bacteroides fragilis FeoAB (Bacteroides fragilis).
The target of test [2] is soluble N-terminal domain of Bacteroides fragilis FeoAB (FeoA fused to the N-terminal GTP-binding domain of FeoB) (Bacteroides fragilis). Kind of test: SEC; 120-ml Superdex 200, 4 °C, 25 mM Tris pH 7.5, 300 mM NaCl, 2% glycerol, 1 mM TCEP; after IMAC.

Take `Nc1nc2c(ncn2[C@@H]2O[C@H](COP(=O)(O)OP(=O)(O)O)[C@@H](O)[C@H]2O)c(=O)[nH]1` [GDP]: the “hydrogen-deuterium exchange mass spectrometry” value on BfNFeoAB (5 mM GDP) is “binding of GDP elicits a mixture of protein protection and deprotection”. As for `Nc1nc2c(ncn2[C@@H]2O[C@H](COP(=O)(O)OP(=O)(O)NP(=O)(O)O)[C@@H](O)[C@H]2O)c(=O)[nH]1` [GMP-PNP], the “hydrogen-deuterium exchange mass spectrometry” value on BfNFeoAB (5 mM GMP-PNP, nonhydrolyzable GTP analog) is reported as “Binding of the nonhydrolyzable GTP analog with GMP-PNP elicits increases in protein protection”. Turning to “FeoA domain of Bacteroides fragilis FeoAB (domain or fragment)”, in test [1], the kcat of GTP hydrolysis by BfNFeoAB (FeoA present on the chain), 1D-31P NMR, 37 °C turned out to be 0.00071 s⁻¹ and the kcat of GTP hydrolysis by BfNFeoB-L (FeoA deleted), malachite green assay, 37 °C was found to be 0.037 s⁻¹. “soluble N-terminal domain of Bacteroides fragilis FeoAB (FeoA fused to the N-terminal GTP-binding domain of FeoB) (domain or fragment)” gave a stoichiometry N in test [2] of 3.

The stoichiometry N is a count of units in the complex or per binding partner.
